According to US20190367619A1 (ARGENX, published 2019):

Assays:
[1] = target: T1, human galectin-10 as coated in ELISA (soluble galectin-10; tag not given) (human, UniProt Q05315 1-142, limits assumed); test: ELISA, scFv periplasmic extract on coated soluble galectin-10, anti-Myc-HRP
T1 construct: also called coated galectin-10; Gal10
T1 sequence: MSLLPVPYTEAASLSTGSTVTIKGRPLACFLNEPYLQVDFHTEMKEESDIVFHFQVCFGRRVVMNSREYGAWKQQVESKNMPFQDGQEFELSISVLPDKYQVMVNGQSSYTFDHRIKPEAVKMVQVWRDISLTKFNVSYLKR
Protocol: In order to test the binding capacity of the scFvs to galectin-10, an ELISA binding assay was established. Briefly, a Maxisorp plate was coated with soluble galectin-10 (1 μg/mL), then blocked with casein, before being incubated with the periplasmic extract (dilution 1/5 in PBS) containing the scFv-Myc. Detection of the binder was carried out with an anti-Myc-HRP antibody. Absorbance was measured at 450 nm (reference at 620 nm) with Tecan instrument. A significant number of galectin-10 scFv binders were isolated after the second round of selection (45-87% of binders).

human galectin-10-His = target: T2, human galectin-10-His (human); test: ELISA, Gal10-His coated at 1 ug/mL, VHH titrated, anti-Myc-HRP
T2 construct: Whether the last M of the tag is the start Met of galectin-10 is not clear; also called human Gal10-HIS; humanGal10-His
T2 chain: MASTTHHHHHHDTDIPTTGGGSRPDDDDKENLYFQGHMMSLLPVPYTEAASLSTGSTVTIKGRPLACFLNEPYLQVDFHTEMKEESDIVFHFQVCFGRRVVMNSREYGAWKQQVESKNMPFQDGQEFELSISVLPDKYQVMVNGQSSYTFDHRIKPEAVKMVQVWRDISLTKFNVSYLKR
Protocol: (§1) The binding capacity of the 15 VHH clones was analysed by ELISA. Briefly, a Maxisorp plate was coated overnight with human or cynomolgus WGS or YRT isoforms galectin-10-His at 1 μg/mL and blocked with PBS 1% casein, before being incubated with a serial dilution of the VHH (from 4 μM, dilution 1/3, 12 points of dilutions). […] Absorbance was measured at 450 nm (reference at 620 nm) with Tecan instrument. Finally, the raw data (OD values) were plotted on GraphPad Prism 7.01. […] As a positive control, clone 1D06 from the previous human specific panel was included.

[2] = target: T3, human galectin-10-His (recombinant human galectin-10 with TEV-cleavable N-terminal His-tag) (human); test: ELISA, scFv-hFc on coated galectin-10-His (0.2 ug/mL)
T3 construct: SEC-MALLS: dimer in solution; also called Gal10-His; humanGal10-His
T3 chain: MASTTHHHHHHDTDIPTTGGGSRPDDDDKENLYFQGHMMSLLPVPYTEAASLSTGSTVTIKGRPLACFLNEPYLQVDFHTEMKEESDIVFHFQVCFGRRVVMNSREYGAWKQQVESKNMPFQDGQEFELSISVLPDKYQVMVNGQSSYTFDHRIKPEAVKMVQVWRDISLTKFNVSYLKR
Protocol: In a similar setup to that used during the initial screening, the relative binding properties of the 12 scFv-human Fc clones were analyzed by ELISA. Briefly, a Maxisorp plate was coated with galectin-10-His at 0.2 μg/mL and blocked with casein, before being incubated with a serial dilution of the scFv-human Fc fusion molecules. After several washing steps, detection of the bound scFv-human Fc was carried out with an anti-human Fc-HRP antibody. Absorbance was measured at 450 nm (reference at 620 nm) with Tecan instrument. Finally, the raw data (OD values) were plotted on GraphPad Prism 7.01. The EC50 value of each compound was calculated with a non-linear regression (log(agonist) vs. response Variable slope (four parameters)).

[3] = target: T3, human galectin-10-His (recombinant …); test: SPR Biacore T3000, scFv-hFc captured by anti-human Fc, galectin-10-His as analyte
Protocol: In order to determine the binding properties (on-rate/off-rate) of the scFv-human Fc panel, their binding capacity to galectin-10 was analyzed on Biacore T3000. For this purpose, a capture approach was set up. A CM5 Chip was coated with polyclonal anti-human Fc at 8000 RU, then a fixed concentration of the scFv-human Fc panel (1.5 μg/mL), diluted in HBS-EP pH7.4, were captured to reach a binding signal around 150 RU. Finally, a serial dilution of galectin-10-His (serial dilution, 1 over 2 from 5 μg/mL, 6 points of dilution) diluted in HBS-EP pH7.4 was injected. Raw data were analyzed via BIA evaluation software with a blank subtraction (4-3). The kd/KD and Rmax of each scFv-human Fc for galectin-10-His was determined using the Fit Kinetics simultaneous ka/kd/Binding with mass transfer/Local Rmax on BIA evaluation software.

[4] = target: T4, cynomolgus galectin-10-His, YRT isoform (cynomolgus); test: ELISA, Gal10-His coated at 1 ug/mL, VHH titrated, anti-Myc-HRP
T4 construct: not shown: His tag
T4 chain: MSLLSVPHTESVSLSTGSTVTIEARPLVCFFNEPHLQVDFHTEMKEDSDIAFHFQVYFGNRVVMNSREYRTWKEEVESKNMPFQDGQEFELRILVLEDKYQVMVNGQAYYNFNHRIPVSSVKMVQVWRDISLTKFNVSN
Protocol: as §1

B1: scFv 6F11 (periplasmic extract, Myc-tagged) (scFv, not shown: small tags and cut ends)
scFv: QVQRQESGPGLVKPSQTLSVTCTVSGGSITTGPYSWSWIRQPPGKGLEWIGYIGYSGSTYYSPSLKSRTSISRDTSNNQFSLQLSSVTPEDTAVYYCARSRSSPTTFGMDYWGKGTLVTVSSGGGGSGGGGSGGGGSSSALTQPSAVSVSLGQTARITCQGGDFGRYYVAWYTQKPGQAPVLVIYQDSERPSGIPERFSGSSSGDTATLTISGAQAEDEAEYYCQSGISSDNIVFGGGTHLTVL
notes: also called 6F011
[1]
  PERI-ELISA binding (OD values): 3.76 OD

B2: VHH clone 13C03 (VHH)
VHH: QVQLVESGGGLVQPGGSLRLSCAASGSIFSISRMGWYRQAPGKQRELVAIIFSDASTDYADSVKGRFTISRSNAKNTVYLQMNSLKPEDTAVYYCKSVLRAAGYGYFNQYWGQGTQVTVSS
notes: Purified VHH-Myc-His from E. coli; not shown: Myc and His tags of the phagemid vector
Human galectin-10-His
  Bmax (OD values): 2 OD
  EC50: 30.6 nM

B3: 3A03 scFv-human Fc (Fc fusion)
scFv: QVQLVESGGGLVQPGGSLRLSCATSGFTFSVYAMSWVRQAPGKGLEWVADINTSGDSTTYADSVKGRFTISRDNAKNTLYLQMNSLKPEDTAVYYCANRYTQERGQGTQVTVSSGGGGSGGGGSGGGGSDVVLTQTPGSLSVVPGEAASISCKPGRTLVHTDGRTYLYWLQQKPGQRPQLLIYQVSNRGSGVPDRFTGSGSGTDFTLKISGVKAEDAGVYYCAQATYYPLTFGSGTRLEIK
notes: about 100 kDa on SDS-PAGE; also called 3A03 ScFv-hFc; not shown: CH2-CH3 constant domains of human IgG1 (vector pUPEX50)
[2]
  Bmax (OD values): 1.81 OD
  EC50: 0.06 nM
[3]
  Kd: 1.56 nM
  koff: 0.0111 s⁻¹

B4: scFv 6A11 (periplasmic extract, Myc-tagged) (scFv, not shown: small tags and cut ends)
scFv: ELQLVESGGGLVQPGGSLRLSCSASGFTFGAYAMNWVRQAPGKGLEWVSGVNSGGGLTSYGESVKGRFTISRDNAKNTLYLQMNRLNPDDTAVYYCAKSKRGAVVAGTGDDYWGQGTQVTVSSGGGGSGGGGSGGGGSSSALTQPSAVSVSLGQTARITCQGGNFGRYYVSWYQQKPGQAPVLVIYKDSERPSGIPERFSGSSSGDTATLTISGAQAEDEADYYCQSGSSSDNAVFGGGTHLTVL
[1]
  PERI-ELISA binding (OD values): 2.35 OD

B5: scFv 2B11 (periplasmic extract, Myc-tagged) (scFv, not shown: small tags and cut ends)
scFv: QVQLQESGPGLVKPSQTLSLTCTVSGGSITTNYYYWSWIRQPPGKGLEWMGAIAYSGSTYYSPSLKSRTSISRDTSKNQFTLQLSSVTPEDTAVYYCARAPYGISREYDYWGQGTQVTVSSGGGGSGGGGSGGGGSHSAVTQPSAVSVSLGQTARITCQGGKFGRYYASWYQQKPGQAPVLVIYKDSERPSGIPERFSGSSSGDTATLSISGAQAEDEADYFCQSGRSSDNAVFGGGTHLTVL
[1]
  PERI-ELISA binding (OD values): 3.79 OD

B6: scFv 2E11 (periplasmic extract, Myc-tagged) (scFv, not shown: small tags and cut ends)
scFv: EVQLVESGGGLVQPGGSLRLSCAASGFTFSSYAMSWVRQAPGKGLEWVSPINSGSDSASYVDSVKGRFTISRDNAKNTLYLQMNSLKPEDTAVYYCAKARTSVVAGGMDYWGKGTLVTVSSGGGGSGGGGSGGGGSQSALTQPSAVSVSLGQTARITCQGGKFGSYYVSWYQQKPGQAPVMVIYKDNERPSGIPERFSGSSSGSTSTLTISGAQAEDEGTYYCQSGSSSDNIVFGGGTELTVF
[1]
  PERI-ELISA binding (OD values): 3.51 OD

B7: VHH clone 13B06 (VHH)
VHH: QVQLVESGGGLVQAGGSLRLSCAASGRTFSTYSMAWFRQAPGKEREFVAAITRSGGNTYADSVKGRFTISRDNAKNTVTLQMNSLKPEDTAAYHCAAGGTYSFVPRSYNYWGQGTQVTVSS
notes: as for B2
Human galectin-10-His
  Bmax (OD values): 1 OD
[4]
  Bmax (OD values): 2 OD

B8: VHH clone 13C04 (VHH)
VHH: ELQVVESGGGLVQAGGSLRLSCAASGRTFSTYSMAWFRQAPGKEREFVAAITRSGGNTYADSVKGRFTISRDNAKNTVTLQMNSLKPEDTAAYHCAAGGTYSFVPRSYNYWGQGTQVTVSS
notes: as for B2
Human galectin-10-His
  Bmax (OD values): 1.1 OD
[4]
  Bmax (OD values): 2.5 OD

B9: 1A12 scFv-human Fc (Fc fusion)
scFv: QVQLVESGGGLVQPGGSLRVSCAASGFTFSSYYMSWVRQAPGKGLEWVSAINSGGGSTYYADSVKGRFTISRDNAKNTLYLQMNSLKSEDTAVYYCVQNGGIWSFGSWGQGTQVTVSSGGGGSGGGGSGGGGSSSALTQPSAISVSLGQTARITCQGGNFGYYYVSWYQQKPGQAPVQVIYGDSNRPSGIPERFSGSSSGGTATLTISGAQAEDEADYYCLSYESSDYPVFGGGTHLTVL
notes: about 100 kDa on SDS-PAGE; also called 1A12 ScFv-hFc; not shown: CH2-CH3 constant domains of human IgG1 (vector pUPEX50)
[2]
  Bmax (OD values): 0.409 OD
[3]
  Kd: 11.7 nM
  koff: 0.00315 s⁻¹

B10: scFv 1A12 (periplasmic extract, Myc-tagged) (scFv, not shown: small tags and cut ends)
scFv: QVQLVESGGGLVQPGGSLRVSCAASGFTFSSYYMSWVRQAPGKGLEWVSAINSGGGSTYYADSVKGRFTISRDNAKNTLYLQMNSLKSEDTAVYYCVQNGGIWSFGSWGQGTQVTVSSGGGGSGGGGSGGGGSSSALTQPSAISVSLGQTARITCQGGNFGYYYVSWYQQKPGQAPVQVIYGDSNRPSGIPERFSGSSSGGTATLTISGAQAEDEADYYCLSYESSDYPVFGGGTHLTVL
[1]
  PERI-ELISA binding (OD values): 2.13 OD

B11: VHH clone 13E09 (VHH)
VHH: QVQVQESGGGLVQAGNSLRLSCAASGRTFSSYHMMWFRQAPGKEREFVAAIAWRGGTYCANSVKGRCTISRDNAKDTVYLQMNSLKPEDTAVYFCAASLRYVFDPSAMDYWGKGTLVTVSS
notes: as for B2
Human galectin-10-His
  Bmax (OD values): 1.8 OD
  EC50: 106 nM
[4]
  Bmax (OD values): 3 OD
  EC50: 66.9 nM

B12: scFv 6F05 (periplasmic extract, Myc-tagged) (scFv, not shown: small tags and cut ends)
scFv: QLQLVESGGGLVQPGGSLRLSCAASGFTFSSYAMSWVRQAPGKGLEWVSAINSGGGSTSYADSVKGRFTISRDNAKNTLYLQMNSLKPEDTAVYYCATPGDRLWYYRYDYWGQGTQVTVSSGGGGSGGGGSGGGGSQAGLTQPPSVSGTLGKAVTISCAGTSSDIGYGNYVSWYQQLPGTAPKLLIYKVSRRASGVPDRFSGSKSGNTASLSISGLQSEDEADYYCASYRYRNNVVFGGGTHLTVL
notes: also called 6F5
[1]
  PERI-ELISA binding (OD values): 3.83 OD

B13: scFv 5E12 (periplasmic extract, Myc-tagged) (scFv, not shown: small tags and cut ends)
scFv: QLQLVESGGGLVQPGGSLRLSCVASGFTFRNYPMTWVRQAPGKGPEWVSAINGGGDIPYYADSVKGRFTISRDNAKNTVYLQMDSLKPEDTAMYYCAKQKWGYDPRRTDFEFRGQGTQVTVSSGGGGSGGGGSGGGGSETVPTQSPSSVTASVGEKVTITCKSSQSVRIESNHKTYLNWYQQRPGRGPRLLIYDASSRESGIPDRFSGSGSTSDFTLTISSVQPEDAAVYYCQQAYAAPTFGQGTKLEIK
[1]
  PERI-ELISA binding (OD values): 2.42 OD

B14: 5E12 scFv-human Fc (Fc fusion)
scFv: QLQLVESGGGLVQPGGSLRLSCVASGFTFRNYPMTWVRQAPGKGPEWVSAINGGGDIPYYADSVKGRFTISRDNAKNTVYLQMDSLKPEDTAMYYCAKQKWGYDPRRTDFEFRGQGTQVTVSSGGGGSGGGGSGGGGSETVPTQSPSSVTASVGEKVTITCKSSQSVRIESNHKTYLNWYQQRPGRGPRLLIYDASSRESGIPDRFSGSGSTSDFTLTISSVQPEDAAVYYCQQAYAAPTFGQGTKLEIK
notes: about 100 kDa on SDS-PAGE; also called 5E12 ScFv-hFc; not shown: CH2-CH3 constant domains of human IgG1 (vector pUPEX50)
[2]
  Bmax (OD values): 1.84 OD
  EC50: 0.25 nM
[3]
  Kd: 4.73 nM
  koff: 0.00177 s⁻¹
